System: CSCC[C@H](N)C(=O)O
Description: Compound was evaluated for its inhibitory activity against recombinant S-adenosyl L-Methionine synthetase (alpha-isoform) in rat liver

Chain of S-adenosylmethionine synthase isoform type-1 (Rattus norvegicus), P13444 (P13444 whole entry, canonical isoform): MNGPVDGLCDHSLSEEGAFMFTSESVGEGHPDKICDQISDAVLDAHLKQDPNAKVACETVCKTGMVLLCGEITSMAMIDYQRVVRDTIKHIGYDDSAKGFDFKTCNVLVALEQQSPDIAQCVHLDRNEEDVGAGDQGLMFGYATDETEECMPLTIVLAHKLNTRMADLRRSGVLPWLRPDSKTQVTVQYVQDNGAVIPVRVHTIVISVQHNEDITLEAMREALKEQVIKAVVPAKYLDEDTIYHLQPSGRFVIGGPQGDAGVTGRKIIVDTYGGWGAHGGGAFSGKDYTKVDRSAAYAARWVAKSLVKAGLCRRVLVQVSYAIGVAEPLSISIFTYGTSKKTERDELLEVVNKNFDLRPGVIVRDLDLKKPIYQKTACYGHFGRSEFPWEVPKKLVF

Question: How did the Km turn out when “S-adenosylmethionine synthase isoform type-1 (Rattus norvegicus), P13444” was run?
Answer: 70 µM

Source: ChEMBL document CHEMBL1130856, “A new series of cyclic amino acids as inhibitors of S-adenosyl L-methionine synthetase” (Bioorg Med Chem Lett, 1998)
